Laboratory results taken from paper PMC9449495, “Transcription factor VvibHLH93 negatively regulates proanthocyanidin biosynthesis in grapevine”.

Key:
[1] = molecular target: T1, VvibHLH93 (Vitis vinifera, UniProt A0ABY9CC89 1-331); test: EMSA; LightShift Chemiluminescent EMSA Kit (Thermo Fisher) per manufacturer's protocol; buffer, salt, pH and temperature not stated; settings: protein: recombinant, tags: His (pET-32a fusion), chain copies: 2
[2] = molecular target: T1, VvibHLH93; test: competition; 50x unlabeled competitor vs N1; shifted band less abundant; LightShift Chemiluminescent EMSA Kit (Thermo Fisher) per manufacturer's protocol; buffer, salt, pH and temperature not stated; settings: protein: recombinant; tags: His (pET-32a fusion); chain copies: 2

T1 sequence (A0ABY9CC89 entry or part of it): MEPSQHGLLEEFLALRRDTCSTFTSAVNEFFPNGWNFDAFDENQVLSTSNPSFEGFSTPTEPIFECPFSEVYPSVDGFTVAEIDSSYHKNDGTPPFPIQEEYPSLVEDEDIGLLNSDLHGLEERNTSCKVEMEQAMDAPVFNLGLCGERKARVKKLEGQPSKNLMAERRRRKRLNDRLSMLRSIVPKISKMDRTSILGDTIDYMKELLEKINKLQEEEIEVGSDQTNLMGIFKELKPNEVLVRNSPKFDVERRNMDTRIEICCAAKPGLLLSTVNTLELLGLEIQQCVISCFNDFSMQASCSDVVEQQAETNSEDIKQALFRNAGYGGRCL

B1: VviLAR1 promoter E/G-box probe (tandem MYC and G-box) (dsDNA)
DNA 1: GAGTCGTTGAGGCACATGATTTTTTTGTTAGGACGTGTTATG
DNA 2: CATAACACGTCCTAACAAAAAAATCATGTGCCTCAACGACTC
Does B1 bind ([1]; label: 3' biotin)?
Result: binds

B2: VviLAR1 promoter E/G-box cold probe (dsDNA)
DNA 1: GAGTCGTTGAGGCACATGATTTTTTTGTTAGGACGTGTTATG
DNA 2: CATAACACGTCCTAACAAAAAAATCATGTGCCTCAACGACTC
Does B2 bind [2]?
Result: binds

B3: VviLAR1 promoter E/G-box mutant probe (dsDNA)
DNA 1: GAGTCGTTGAGGTATATCATTTTTTTGTTAGAAAATCTTATG
DNA 2: CATAAGATTTTCTAACAAAAAAATGATATACCTCAACGACTC
Does B3 bind [1]?
Result: no binding
